Test results taken from article PMC3097204.

Columns and labels:
[1] = target: mature SsTroA domain (residues 36–317) (Streptococcus suis serotype 2 (strain 05ZYH33)); experiment: SEC; analytical FPLC Superdex 200 profile of purified SsTroA
[2] = target: mature SsTroA domain (residues 36–317) (Streptococcus suis serotype 2 (strain 05ZYH33)); experiment: AUC; sedimentation velocity profiles analysed with SEDFIT; 1 mg/ml protein in 20 mM Tris-HCl (pH 8.0), 50 mM NaCl; 50,000 rpm, 20°C; monomer and dimer

- stoichiometry N [1]: 2
- percent of the total protein in the dimer peak [2]: 6.8%
- stoichiometry N [2]: 2
Substance: mature SsTroA domain (residues 36–317) (domain or fragment)
